Experimental findings from paper doi:10.1101/2025.03.28.645925 (bioRxiv, 2025) are described below.

The target in data set [1] is NrdR2^PAO (GSGSGS-NrdR2, P. aeruginosa NrdR after TEV digestion) (P. aeruginosa PAO1). Nature of the data set: SEC-MALS.
Data set [2] shares this target. Put plainly: SEC-MALS. The source holds these as a separate data set.
Data set [3] has the same target. Nature of the data set: SEC-MALS. The source holds these as a separate data set.
Data set [4] concerns the target NrdR1^PAO (P. aeruginosa NrdR with a two amino acid linker after SUMO protease digestion) (P. aeruginosa PAO1). Nature of the data set: SEC.
Data set [5] has the same target. Put plainly: SEC. This is another data set of the same source.
The target of data set [6] is P0A8D0. Put plainly: SEC-MALS.
In data set [7] the target is P0A8D0. Nature of the data set: SEC-MALS. The source holds these as a separate data set.
Data set [8] deals with the molecule itself. Put plainly: SEC-MALS.
Data set [9] deals with the molecule itself. Put plainly: SEC-MALS. The source holds these as a separate data set.
Data set [10] deals with the molecule itself. Nature of the data set: SEC-MALS. This is another data set of the same source.
Data set [11] deals with the molecule itself. Put plainly: SEC-MALS. This is another data set of the same source.
Data set [12] concerns the molecule itself. Put plainly: SEC-MALS. The source holds these as a separate data set.
Data set [13] deals with the molecule itself. Nature of the data set: SEC-MALS. The source holds these as a separate data set.
The data set “SEC” concerns the molecule itself. Nature of the data set: SEC.

“And” between values parts separate entries of the source, which are not always exact repeats. Equal values may be shown once. Read-outs that look alike come from different tables or passages of the source. Bounds are passed on as bounds.

Regarding “NrdR2^PAO (GSGSGS-NrdR2, P. aeruginosa NrdR after TEV digestion) (natural protein)”, the stoichiometry N in [1] is over 2; in data set [2], 2; in data set [3], over 2.
“NrdR1^PAO (P. aeruginosa NrdR with a two amino acid linker after SUMO protease digestion) (natural protein)”: the stoichiometry N in data set [4] is 6 and 2; in data set [5], 2 and 3.

B1: SUMO-NrdR2^ECO E42A (natural protein, E. coli K-12 MG1655)
chain: ENLYPQGSGSGSMHCPFCFAVDTKVIDSRLVGEGSSVRRRRQCLVCNERFTTFAVAELVMPRVVKSNDVREPFNEEKLRSGMLRALEKRPVSSDDVEMAINHIKSQLRATGEREVPSKMIGNLVMEQLKKLDKVAYIRFASVYRSFEDIKEFGEEIARLED
Turning to B1, the “percent of the protein mass in the monomer peak” value in the data set with P0A8D0 [6] is 83% in a peak with average Mw 36.88 kDa; with P0A8D0 [7], 63% in a peak with average Mw 33.21 kDa. In addition, in “SEC-MALS [8]”, the “stoichiometry N” value turned out to be 2.

B2: SUMO-NrdR2^ECO (undigested 6His-SUMO-TEVcs-(SGSGS)-NrdR, E. coli), wild type (natural protein, E. coli K-12 MG1655)
chain: ENLYPQGSGSGSMHCPFCFAVDTKVIDSRLVGEGSSVRRRRQCLVCNERFTTFEVAELVMPRVVKSNDVREPFNEEKLRSGMLRALEKRPVSSDDVEMAINHIKSQLRATGEREVPSKMIGNLVMEQLKKLDKVAYIRFASVYRSFEDIKEFGEEIARLED
Regarding B2, the “stoichiometry N” value in the data set “SEC-MALS [9]” is 12; in the data set “SEC-MALS [8]”, 2 and ≥ 4; in the data set “SEC-MALS [10]”, 4 and 8.

B3: SUMO-NrdR2^ECO Y131A (natural protein, E. coli K-12 MG1655)
chain: ENLYPQGSGSGSMHCPFCFAVDTKVIDSRLVGEGSSVRRRRQCLVCNERFTTFEVAELVMPRVVKSNDVREPFNEEKLRSGMLRALEKRPVSSDDVEMAINHIKSQLRATGEREVPSKMIGNLVMEQLKKLDKVAYIRFASVARSFEDIKEFGEEIARLED
Turning to B3, the “stoichiometry N” value in “SEC-MALS [9]” was 4 and 8 and 3; in “SEC-MALS [8]”, 2.

B4: SUMO-NrdR2^ECO E36A (natural protein, E. coli K-12 MG1655)
chain: ENLYPQGSGSGSMHCPFCFAVDTKVIDSRLVGEGSSVRRRRQCLVCNARFTTFEVAELVMPRVVKSNDVREPFNEEKLRSGMLRALEKRPVSSDDVEMAINHIKSQLRATGEREVPSKMIGNLVMEQLKKLDKVAYIRFASVYRSFEDIKEFGEEIARLED
Turning to B4, the “stoichiometry N” value in the data set “SEC-MALS [8]” was 2 and ≥ 4; in the data set “SEC-MALS [10]”, 3.

B5: NrdR2^ECO (GSGSGS-NrdR2, E. coli NrdR after TEV digestion) (natural protein, E. coli K-12 MG1655)
chain: GSGSGSMHCPFCFAVDTKVIDSRLVGEGSSVRRRRQCLVCNERFTTFEVAELVMPRVVKSNDVREPFNEEKLRSGMLRALEKRPVSSDDVEMAINHIKSQLRATGEREVPSKMIGNLVMEQLKKLDKVAYIRFASVYRSFEDIKEFGEEIARLED
B5: the “stoichiometry N” value in the data set “SEC-MALS [9]” was 15 to 16; in the data set “SEC-MALS [11]” it was 3; in “SEC-MALS [8]” it was 2; in “SEC-MALS [12]”, 4 to 10 (2×) and 8; in the data set “SEC-MALS [13]”, 6.

B6: SUMO-NrdR2^ECO Δ(132-149) (domain or fragment, E. coli K-12 MG1655)
chain: ENLYPQGSGSGSMHCPFCFAVDTKVIDSRLVGEGSSVRRRRQCLVCNERFTTFEVAELVMPRVVKSNDVREPFNEEKLRSGMLRALEKRPVSSDDVEMAINHIKSQLRATGEREVPSKMIGNLVMEQLKKLDKVAYIRFASVY
On to B6, for which the “stoichiometry N” value in the data set “SEC-MALS [8]” was 2.

B7: NrdR^PAO-H6 (P. aeruginosa NrdR with a C-terminal 6His-tag) (natural protein, P. aeruginosa PAO1, UniProt Q9HWX1 1-154, looked up)
chain: MHCPFCGAHDTKVIDSRLVAEGDQVRRRRECLACGERFTTFETAELVMPRLIKQDGSRQPFDEDKLRAGMQRALEKRPVSVERLEAAIGHIKHQLRATGEREIKSRVLGELVMAELQKLDEVAYIRFASVYRRFQDLNEFREEIERLAREPAKE
Turning to B7, in the data set “SEC”, the binding result is “binds”.
